Reference: the DeepSol protein solubility set

Assay: soluble on expression in E. coli; label from the status in PepcDB or PDB records

| Sequence | soluble on expression in E. coli |
| --- | --- |
| MLSPQTTQVAIIGAGPSGSIAAALLNKHNINCIILEKSTFPRFSIGESLLPACMESIKHAGMLNAVEDACFQFKDGAAFHCNGTFTSFDFTDKFTDGAGTTFQVQRGNFDKVLADCAKEQGVEIRYQHEITDVDVNAEKPLLSVLDENGTPYQIQADFILDASGFGRVLPKLLELEEPSCLPPRRAIFTHIKDNITDESYDRNKILVSVHPTNTQVWYWLIPFSNGTCSFGVVGEPEFFDAYSEDKVTALKQLAEEESNLKHLLNQAEYPNPCGEIMGYSANVSKLFDKNFALLGNAGEFLDPVFSSGVTIAMKSAELAADLLIKQFNQEDVNWQQDYSDKLMKGVNAFRCYVEGWYEGTFQDVIFHENPNPKIKQMICAILAGYAWDESNPFVAEPERRLKVVAELCKPLEHHHHHH | not soluble |
| MEEMRVIGLLSSGIDSPVAIHLMASRGAEVYPLHFRQDEIKEKKARKLVSRLKEIHGEKVKDLKVVDALKVQGPVFEKLRELKREKWICIFCKYTMYMVAEKYAREVGAEAIVTGDSLGQVASQTLDNLMVISTATNLPIIRPLIALDKEEIVRIAKEIGTFEISIENEPPCPFLPKFPVVRAGFSQFRKILEEIREVLPK | soluble |
| MSLHVGAGKSFGTAEANENERRWNDDKIDRKNQDPTNHYDRTRMKLNFEIGPDGKIHPLGYQEKSLEVRLQERLDELGWKPFKADSKIQPNCCAKFVFGGNHDRTLEMAFGNQSVNLEKGADNSHLHRCEEIENWAKDVYDWCVQIYGQENIVGFQVHLDESSPHIHALVVPVGIRPKSGRKCVMWSAKFGKDRYEYGQILKEMHTFLYEDVGSKYGLERGDSIEGRNVHHLHKRDYIRKLTKEAKQAEKAVKGLQSMMRNLESKIFSYRLQLEETEKELASGKITLDRYEAQKADIQKLIAEYQTKLEDKTDKLHAKEQELERLTADATKARSVVQPFRNHKVDFMPPQITEKVPLFGTDKWVERQNQRIAKQFTEIVRKIESLYRNDAARQVEAAQRNVLADYGELYQLRRENKSLSDTNESLESELNTLLDQLAIPSARNLIFAVADALIGGQPVPVSSGGGGSTSDLPWDGRRSDEEEEAYRRRCLMFAIVTVCKQQTKSRREGHHHHHH | soluble |
| TVRLMVDLRHHAAMLEEENDERTRAEQKLAETNVFLNSVVDGVAEPMVVVGLDRRVIMTNRAARDFFQISDVGSDEACHRLIHHRDTPCVREEGMQCPLLDVRTAKRPVIATQEHRDRSGDKRVVEVMTSPLLGSD | not soluble |
| MTARVIALDLDGTLLTPHKTLLPSSLEALSRAKEAGFQLIIVTGRHHVAIHPFYQALALETPAICCNGTYLYDYQAKTVLDADPMPVDKALQLIDLLDEHQIHGLMYVDDAMLYEHPTGHVVRTSRWAQTLPPEQRPTFTQVSSLAQAARDVNAVWKFALTDEDIPRLQRFGQHVEQALGLECEWSWHDQVDIARKGNSKGKRLTQWIEAQGGSMKNVIAFGDNYNDISMLEAAGTGVAMGNADEAVKARADVVIGDNTTDSIAKFIYTHLL | not soluble |
| MQSTIRKQLLQVFSEADGEFVSGQTISDKLGCSRTAVWKHMEDLRNEGYELEAVRRLGYRIASKPDKVTANEIQLGLQTKHIGRTVYFEESVESTQHIAAKLAYEGAEEGTIVVAEEQTAGRGRLSRKWHSPKGTGIWMSIILRPSIPVHHAPQLTLLAAVSVAQAIEKCTGVNVGIKWPNDILIQGKKAVGILTEMQADPDKINAVIMGIGINANQKQEHFDEEIQHIATSLAIESGKPIVRAELMQQIFLQLEKLYEEYLQNGFSVIKILWESYAVSIGKEINARTMRETITGVAKGITEDGVLLLEDHEGKVHHIHSADIEIK | not soluble |
| DRLGPHRAAMMASLNDAVKAASQHHQAEAFGQGDMFGVLTDAPEEVENKYTQVPPWPEKVWLEGERETLGLYLTGHPINAYLKELNKYTSCRLKDATPTRRDQ | not soluble |
| MGSDKIHHHHHHMLNFSLTPNAKILSKDADSYPYMYRNYPFLRPWVDSLKQVNALKDTFIINPQGIQLHAFYITAPAPTSKTAVIVHGYTDNAIRMFMIGYLYNRDLGYNILLPDLQHQGESEGRAIQMGWKDRIDVLQWMNIANEIFGDSTQMVVHGISMGGATTMMVSGEKQQPYVKCFVEDCGYTSVWDEFSHELKSSFHLPAFPLMYTTSWLCEKKYGWNFKEASSLKQVEKCELPMLFIHGDKDTYVPTWMVYPLYEAKPEPKELWIVPGAAHALSYKENKQEYTDKVRDFVGRYIH | not soluble |
| MGSDKIHHHHHHDANGVKIGVITDMSGSYADLSGKGSVLAAQMAVEEFGGKALGKPVTVLSADHQNKADIASSLARRWFDTDGVDMVIDFPNSSTALAVQEVAKQKQKIDIVSTGGAMALTNQNCSPTGFHWAWDTYSVSYPLVKRMIDQGRNSWYYITVDYAFGQSLEADFRKAVDVSGGKNVGSTKHPLNASDFSSPVVAASASKANVVVLANAGNDMINGVKAAGEFGLVKAGQTVITPSTFITDIKSLGLNTAQGLTYVDPFRLDLDEKSKDFVERYYKRHKAYPTHGQIGVYSGVLHYLKAVEAAKTVDGPAVADKMRALPVNDAFVHNGKVRADGRMVHDMYLAQAKTPAESKGPWDLVKYIATIPGDEAFRPLSASECALVKK | not soluble |
| GPLGSGALKWVLCNYDFQARNSSELSVKQRDVLEVLDDSRKWWKVRDPAGQEGYVPYNILTPYPAAAS | soluble |
| MSWIYDAHIHLSDPEYKSDIDMILNYMDLLKIKACCVSMDIETSNETMALYEKSKNVLPFIGIHPEMAQKSSEPVYELIEKNNEIISGIGEIGLDRTYINSEDEWEIQKDVFSKQLSLAEKFNKPVSIHSRKTLSDIFEILPSYKIPGILLHWFDGNKSQLKTAMENEYFVSYGPLLVYANDKQVLLSKTDPSRLLVETDGPVRFSHCFEYKTTEIMFVPSVLFCASKILHTSYENLLTQIEDNSKKFLGI | soluble |
| AGQFGTDYNAAIKVDTQTEFCGYVGTKGSSSVAAMFVEGNEVDSLSAGDKAIIVLGETPFYAESGGQCGDAGEIRTEAGVFRVEDTQKLGNAIAHHGVMAEGVLAKGDEVATIVDAERRAAISLN | not soluble |
| MGSDKIHHHHHHMDEIARFLRSYPPFDRLPEQVVHQIAGELQIEFVRAGQTILTKGGEPSSFLYIVCKGSVDLLRSEDQVVDTLGPGEAFGHPSLIRGQPPLVTVRAHTDTLLYLLPGAIFHRLRAEQPQFAAFFAASVIERLGYALQSRQSESNPALFQTRLRDLVARPPVSISPEATVGDAARLMRDERISSLIVEHTPIGIITDRDLRNRVLAEGLPDTTPVRQVMSAPATTIAADALAFEGLLLMLERGIHHLPLVEGDRVVGVVTHTDILRRQSNSPLFLPRLLQRATSLADLRRYTDQVADAVFTLTAAGARVSDIGRVVAVAHDALLQRLIHDAEAQLGPPPVPYAWLVLGSEGRYEQTLRTDQDNALVYDDSASADDVRYFEQLATLVVDWLVECGFPRCPGNIMATNPEWRQSLATWQRYFHRWIEIPDEESLLRIAIFFDYRQVYGQLPAEPVLRTITQHAAEHRIFMARLARAALRQPAPLTFFRQVALERRGDPRDL | not soluble |
| MGSDKIHHHHHHMQEVATEARIGPNSIIQTVAAARAQYGEEAVADWLRRTGRGHLLEAMPDHMLPESEFGDLIADLRFWLGVSAAADVLAQSGDLTAQYVATHRVPVPIRWLLPRLPVGLALRIFLPAIARHAWTFAGSGRFGYTLQPAWRLTLADSVEARGVRATEPVCAYYRAAFEGLLRRVVCDRLRVHEVACRAMGTGRCEFAVELSR | not soluble |
| MAAPEAEVLSSAAVPDLEWYEKSEETHASQIELLETSSTQEPLNASEAFCPRDCMVPVVFPGPVSQEGCCQFTCELLKHIMYQRQQLPLPYEQLKHFYRKPSPQAEEMLKKKPRATTEVSSRKCQQALAELESVLSHLEDFFARTLVPRVLILLGGNALSPKEFYELDLSLLAPYSVDQSLSTAACLRRLFRAIFMADAFSELQAPPLMGTVVMAQGHRNCGEDWFRPKLNYRVPSRGHKLTVTLSCGRPSIRTTAWEDYIWFQAPVTFKGFRE | soluble |
| MTIDCHEDRRVLLVPHTGRPQNVASAALAAELLDDSGVGVRVLVPAEDTTVATHPVLGQFERVSHSPQATQSVDLVLVLGGDGTFLRAADLAHGADLPVLGINLGHVGFLAEWEKDSLDEAVRRVTKGSFRIEERMTLDVSVYDSNGTAIGRGWALNEVSIENSNRSGVLDATLEIDSRPVSSFGCDGIIVSTPTGSTAYAFSAGGPVLWPELDAILVVPNNAHALFTKPLVVSPRSSVAVESHPSAFPATAVMDGFRSISVPPGARVEVKRGSRSIKWVRLDDIPFTDRLVTKLRLPVEGWRGPKNMIPQINPHSALEHHHHHH | soluble |
| MGSDKIHHHHHHMADGAEFKVYTQRFIMEKIAYYLGQYHSLEENNAFWGEGFTEWHNVAKARPLFPSHRQPVLPGKLGFYDLRNNDTIEEQVALADSFGVTAFCHWHYWFGGKRVLYRPFDSMLKIQNSPVKVMLGWANESWTGIWHGLSDQVIFEQPYNKIELNEHAKLLADYFRHENYLKVNGKAAFLIYKPRKIPESKSYLQLLRQKVYENCGLDMYIIGTWGPGRLEVIHSADELGLDALVANNVGATFKSELSRKLYNGFWTAAKSLGLGPELRNYASTVKTLEYAHQNISGTVHSTIVTGWDNSPRSNRRALVLTNFNENSFKYAIDIAISNEKNNENKLLFIKSWNEWAEGNTLEPRFKEDWSLGKVLKKQIIKHDV | not soluble |
| MSSQIPFTVDHVGSFLRPETIKKARKKVQAGALSQAELRLIEDEEIKALVAKQKAGGLRGITDGEFRRGFWHIDFLEGLNGVTGYIPETGYNQTFHGKAAPAYNIRVVDKISFPTQHPFLEDFSFLKEVVEVGDGTVAKATIPSPTMILRQEILSNDGTSRIQTIYPEIGAFYKDLAQTYKDAIAAFYERGCRYLQFDDTNWAFLADQTKQEELRAKGIQPEEIAQVCTTIINEALAGKPEDLTVTTHICRGNHASSWLFSGGYEPIAKELFATNYDGFFLEYDSDRAGDFSPLRHWQNNGSKVVLGLVTSKFPELEETEQVKARIEEAQQFVPLENLSISPQCGFASTEEGNRLTEKEQWRKVQLLQEIAREVWLEHHHHHH | soluble |
| MSLRILYLDPFSGISGDMFLGLLVDLGVDPEKIKSRLEKLNVEFDLVVKKVNKKGVTATKVDVVFPRKEHHEDHIVSDHDHHHHHGRHLSEIVEVLSRLEDPLKEKAIRMFEALAEAESKIHGLSKEKVHFHEVGAMDAVIEIAGAVVGLELLEVEKVFCGTVNTGSGFVMTEHGRYPVPAPATAELLKGIPIYMDQKVRAELVTPTGAVILKILVDEFRTPILRVEKVGYGAGTMDLEIPNVLRGYLGYIEPSERTGDVLIETNVDDMNPQLFGHLMERLFEAGAKDVFFTPIYMKKNRPAVKVSVLCHESKKDEILKLLFKESTSIGARVFYPEKVEATRTLKTVKTEYGEIPVKIASFDSEIVNISPEYEACKKVAQEKGIPLKEVYRAVYKSVSEVRNDVEGHHHHHH | soluble |
| MSLATILIADDDPVTRTTLSIMLEDEDHEVYEAADSAETLDLLETTEPHVVFMDMVLPDCEAGEGITRVRRAAPAVTIIAMTGQPDTARFSAMARDAGCKECLIKPFEKNRVLALTRKVLAARGHKEGHHHHHH | not soluble |
